Source: the RNAGym collection of RNA variant scans (doi:10.7554/elife.90254)

B1: OR4K15 (parent)
chain: GUUAACGGUCAUAGGCCAUGGAAACUAGGAGCACCAUUUCGCUGCCAGUGAAGAAAUGAACAAAGAAAAUCUGGGCCAGGCAGGCAUCAAAAGAAAUAGUCUUGCGCUCAACCAGAAAGUCUGUAAUCAUUUUAAGGGUA

Variants of: B1
Test: self-cleavage, relative activity (ratio to wild type); higher = more cleavage; in vitro, sequencing; the parent is a self-cleaving ribozyme

Variant	self-cleavage
A47U G99A	0.23
C46U U130C	1.4
C46U U127C	0.86
C46A A60U	1.27
U43C A89C	1.36
C45A A129G	0.87
C45A G99A	0.92
U43C G136A	1.75
G44C A117G	1.69
C45G U131C	0.41
A47U A135C	1.32
U43C U130C	0.47
G48U A56G	1.4
A47C A68G	0.55
A47C U70C	0.23
G44A U108C	0.01
A47C U120C	1
A47C U120A	2.24
U43C U100C	2.35
G44A U124C	0.45
G44A U124A	1.15
U43C A92G	1.24
G44A U131C	1.53
U43C A118U	0.87

Variant	self-cleavage
U43C A118C	1.4
A47G G74A	0.21
A47U A55G	0.6
A47G C112U	0.01
U43C G93A	2.44
G44C A78G	0.52
G44U A59G	1.67
A47U U133C	0.97
A47G A51G	0.9
G48C	1.46
G48U	1.61
G48A	1.44
A47G U132C	0.47
U43C C71A	0.32
A47U A95G	1.25
G48A A64U	1.63
C45G A51G	1.57
U43C A125U	1.56
U43C A125G	0.53
U43C A55G	1.07
A47U U139G	1.4
A47G A59G	0.86
C46U A59G	1.81
U43C A110G	0.15

Variant	self-cleavage
A47U A62U	1.36
U43C C85U	1.32
U43C U132A	1.82
A47C G74A	0.17
A47C G74U	0.15
A47U A59U	0.57
A47C C105U	0.32
A47U A67G	1.23
A47G A68U	1.17
A47G A68G	1.23
U43A U132A	1.41
U43A U132C	1.86
A47U U103G	0.03
A47C A129G	0.74
U43A U120G	1.16
A47G U131A	0.62
A47G U131C	0.71
U43G	1.7
U43C	1.29
C45G U102C	1.48
U43C U97G	1.6
A47G A134G	0.84
G48A U130C	0.82
G44U A95G	1.73

Variant	self-cleavage
G44A A47G	1.27
C45U A86U	1.17
U43C U120C	0.46
G44A	1.53
G44C	1.33
G44U	1.91
A47G G58C	0.97
A47G G58A	0.52
A47U U132C	1.02
A47U U132A	0.51
A47G A86U	2.98
C46U U87C	1.68
G48A A126U	1.9
G48A A126G	1.15
A47G U72A	0.09
A47G U72C	0.35
A47C U108C	0.02
U43C A63C	2.53
A47G A64G	1.17
G44A G83A	1.24
G44U A64G	1.19
U43A U130C	1.44
U43C A126G	0.73
U43C A126C	1.95

Variant	self-cleavage
C46U C85U	1.36
A47U U87C	1.34
U49A	1.05
U43C A91U	1.88
U43C A54U	0.85
U43C A54G	1.4
C46U A117G	2.01
A47U A82G	0.21
A47U A117C	0.24
A47U U120A	1.19
C46G	1.46
C46U	1.54
C46A	1.44
U43C U127C	0.89
U43A U122G	2.29
A47U A118G	0.76
A47G U108C	0.01
A47G U100G	2.14
G48C A92U	1.18
A47G A91G	0.69
C46U A51U	0.64
C46U A69U	1.84
A47U A98U	1.79
G44A G84U	0.93

Variant	self-cleavage
A47G U120A	1.21
A47G C85U	0.65
A47U U131C	0.54
G44A U102A	1.56
G44A U102C	2.14
C46U A116G	1.37
U43A U139G	2.1
U43A U139C	2.42
C45U U120C	1.06
G48A G73A	0.22
U43C A86G	1.32
G48A U124A	0.41
C46A A52G	1.25
C46A U97A	1.43
U43C C112U	0
U43C A140G	1.95
G48A A110G	0.12
G44A U97C	0.83
U43G A125G	1.11
C45U U122G	2.74
C45U A51G	1.58
U43G A111G	0.03
A47C U87C	1.76
A47G C105A	0.07

Variant	self-cleavage
G48A U133C	2.78
C46U A114G	0.49
U43C G138A	2.16
A47G U87C	0.42
A47G G138A	1.31
U43C U108C	0.02
U43C U108A	0.02
A47G A78U	0.14
A47G A78G	0.26
G44A A134U	0.73
C45U A56C	0.67
U43C A95U	0.49
A47U A111G	0.04
U43C A47G	0.98
C45U A129G	1.16
U43C A69G	0.94
G44A A95G	1.76
A47U A78C	0.08
A47U A78G	0.17
G44A A64G	1.36
A47C A67G	0.84
C45A U131A	1.29
A47G A96G	1.18
